Data as given in patent publication US20030170875A1.

Biological target: wild type human norepinephrine transporter (human) (UniProt P23975)
Test: cell-based or functional assay

- [3H]NE uptake on cotransfection (% of wt alone): 59
Substance: human norepinephrine transporter A457P mutant (from UniProt P23975 1-617)
